B1: WASH complex subunit 5 (Homo sapiens), Q12768 (parent)
chain: MLDFLAENNLCGQAILRIVSCGNAIIAELLRLSEFIPAVFRLKDRADQQKYGDIIFDFSYFKGPELWESKLDAKPELQDLDEEFRENNIEIVTRFYLAFQSVHKYIVDLNRYLDDLNEGVYIQQTLETVLLNEDGKQLLCEALYLYGVMLLVIDQKIEGEVRERMLVSYYRYSAARSSADSNMDDICKLLRSTGYSSQPGAKRPSNYPESYFQRVPINESFISMVIGRLRSDDIYNQVSAYPLPEHRSTALANQAAMLYVILYFEPSILHTHQAKMREIVDKYFPDNWVISIYMGITVNLVDAWEPYKAAKTALNNTLDLSNVREQASRYATVSERVHAQVQQFLKEGYLREEMVLDNIPKLLNCLRDCNVAIRWLMLHTADSACDPNNKRLRQIKDQILTDSRYNPRILFQLLLDTAQFEFILKEMFKQMLSEKQTKWEHYKKEGSERMTELADVFSGVKPLTRVEKNENLQAWFREISKQILSLNYDDSTAAGRKTVQLIQALEEVQEFHQLESNLQVCQFLADTRKFLHQMIRTINIKEEVLITMQIVGDLSFAWQLIDSFTSIMQESIRVNPSMVTKLRATFLKLASALDLPLLRINQANSPDLLSVSQYYSGELVSYVRKVLQIIPESMFTSLLKIIKLQTHDIIEVPTRLDKDKLRDYAQLGPRYEVAKLTHAISIFTEGILMMKTTLVGIIKVDPKQLLEDGIRKELVKRVAFALHRGLIFNPRAKPSELMPKLKELGATMDGFHRSFEYIQDYVNIYGLKIWQEEVSRIINYNVEQECNNFLRTKIQDWQSMYQSTHIPIPKFTPVDESVTFIGRLCREILRITDPKMTCHIDQLNTWYDMKTHQEVTSSRLFSEIQTTLGTFGLNGLDRLLCFMIVKELQNFLSMFQKIILRDRTVQDTLKTLMNAVSPLKSIVANSNKIYFSAIAKTQKIWTAYLEAIMKVGQMQILRQQIANELNYSCRFDSKHLAAALENLNKALLADIEAHYQDPSLPYPKEDNTLLYEITAYLEAAGIHNPLNKIYITTKRLPYFPIVNFLFLIAQLPKLQYNKNLGMVCRKPTDPVDWPPLVLGLLTLLKQFHSRYTEQFLALIGQFICSTVEQCTSQKIPEIPADVVGALLFLEDYVRYTKLPRRVAEAHVPNFIFDEFRTVL

Variants of: B1
Settings: with pcna_human PCNA

Effect of a mutation on the interaction, with no effect:
V626F
L619F
N471D

From IntAct's records for PubMed 28514442
